Measurements reported in patent US20250082770A1 (SYNAFFIX B V, published 2025).

T1: CEACAM5 on MKN-45 cells (UniProt P06731 35-702, limits assumed)
T1 sequence (looked up): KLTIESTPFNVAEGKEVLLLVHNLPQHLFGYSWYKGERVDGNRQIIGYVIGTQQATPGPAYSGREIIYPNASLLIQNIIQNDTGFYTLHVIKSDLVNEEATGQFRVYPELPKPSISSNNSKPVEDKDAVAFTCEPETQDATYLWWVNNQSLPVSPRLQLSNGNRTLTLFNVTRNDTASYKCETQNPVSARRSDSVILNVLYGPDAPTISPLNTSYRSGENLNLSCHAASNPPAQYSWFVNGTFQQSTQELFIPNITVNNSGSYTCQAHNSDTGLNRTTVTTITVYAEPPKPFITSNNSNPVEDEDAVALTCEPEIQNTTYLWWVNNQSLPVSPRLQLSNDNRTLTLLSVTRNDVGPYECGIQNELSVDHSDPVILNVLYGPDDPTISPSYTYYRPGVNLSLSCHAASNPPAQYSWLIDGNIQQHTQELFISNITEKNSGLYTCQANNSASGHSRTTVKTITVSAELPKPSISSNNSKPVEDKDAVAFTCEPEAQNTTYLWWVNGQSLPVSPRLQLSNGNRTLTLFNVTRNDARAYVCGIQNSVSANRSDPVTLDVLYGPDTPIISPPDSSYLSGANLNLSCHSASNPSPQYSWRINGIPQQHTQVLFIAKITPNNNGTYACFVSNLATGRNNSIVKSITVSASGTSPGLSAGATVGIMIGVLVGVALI

T2: Human CEACAM5 (CD66e protein, His Tag, Sino Biological) (human, UniProt P06731 35-685)
T2 construct: Bought His-tagged protein captured on nickel NTA plates; also called hCEACAM5; hCD66e; not shown: His tag
T2 sequence (looked up): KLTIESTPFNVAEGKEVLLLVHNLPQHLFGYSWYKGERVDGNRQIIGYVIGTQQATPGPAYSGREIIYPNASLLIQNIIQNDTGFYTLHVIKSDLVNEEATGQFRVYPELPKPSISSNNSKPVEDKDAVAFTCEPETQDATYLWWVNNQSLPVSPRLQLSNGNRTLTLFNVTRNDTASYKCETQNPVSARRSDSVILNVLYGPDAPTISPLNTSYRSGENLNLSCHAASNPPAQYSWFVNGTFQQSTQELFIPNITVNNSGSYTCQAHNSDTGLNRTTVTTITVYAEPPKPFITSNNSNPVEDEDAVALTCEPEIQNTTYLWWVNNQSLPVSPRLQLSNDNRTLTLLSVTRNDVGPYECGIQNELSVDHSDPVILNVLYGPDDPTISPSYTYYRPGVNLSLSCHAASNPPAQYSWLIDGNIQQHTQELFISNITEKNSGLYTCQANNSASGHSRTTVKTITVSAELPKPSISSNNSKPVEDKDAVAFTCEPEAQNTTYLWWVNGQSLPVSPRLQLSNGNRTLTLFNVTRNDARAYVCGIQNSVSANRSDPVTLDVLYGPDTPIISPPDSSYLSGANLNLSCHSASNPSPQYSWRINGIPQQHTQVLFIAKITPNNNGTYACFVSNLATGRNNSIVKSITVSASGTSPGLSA

T3: human CEACAM6 (CD66c protein, His Tag, Sino Biological) (human, UniProt P40199 35-320)
T3 construct: Bought His-tagged protein captured on nickel NTA plates; also called hCEACAM6; hCD66c; not shown: His tag
T3 sequence (looked up): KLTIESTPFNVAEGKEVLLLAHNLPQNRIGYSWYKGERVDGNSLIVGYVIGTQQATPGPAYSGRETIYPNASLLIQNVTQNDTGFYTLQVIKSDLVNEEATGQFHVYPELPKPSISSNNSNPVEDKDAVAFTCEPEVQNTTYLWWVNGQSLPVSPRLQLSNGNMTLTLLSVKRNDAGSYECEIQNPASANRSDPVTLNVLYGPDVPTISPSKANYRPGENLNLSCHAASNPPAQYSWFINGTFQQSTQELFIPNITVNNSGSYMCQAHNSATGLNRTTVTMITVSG

B1: labetuzumab-3 (antibody, human IgG1, kappa, V domains shown)
VH: EVQLVESGGGVVQPGRSLRLSCSASGFDFTTYWMSWVRQAPGKGLEWIGEIHPDSSTINYAPSLKDRFTISRDNAKNTLFLQMDSLRPEDTGVYFCASLYFGFPWFAYWGQGTPVTVSS
VL: DIQLTQSPSSLSASVGDRVTITCKASQDVGTSVAWYQQKPGKAPKLLIYWTSTRHTGVPSRFSGSGSGTDFTFTISSLQPEDIATYYCQQYSLYRSFGQGTKVEIKR
modifications: heavy-chain glycan trimmed to core GlcNAc, 6-N3-GalNAc attached and reacted with BCN-HS-PEG2-HS-(va-PAB-Ex)2 3 (exatecan payload); average DAR 3.90
B2: labetuzumab (antibody, human IgG1, kappa, V domains shown)
VH: EVQLVESGGGVVQPGRSLRLSCSASGFDFTTYWMSWVRQAPGKGLEWIGEIHPDSSTINYAPSLKDRFTISRDNAKNTLFLQMDSLRPEDTGVYFCASLYFGFPWFAYWGQGTPVTVSS
VL: DIQLTQSPSSLSASVGDRVTITCKASQDVGTSVAWYQQKPGKAPKLLIYWTSTRHTGVPSRFSGSGSGTDFTFTISSLQPEDIATYYCQQYSLYRSFGQGTKVEIKR
notes: IgG transiently expressed in CHO K1 cells; also called labetuzumab (II); hMN-14
B3: B12-3 (antibody, human IgG1, kappa, V domains shown)
VH: QVQLVQSGAEVKKPGASVKVSCQASGYRFSNFVIHWVRQAPGQRFEWMGWINPYNGNKEFSAKFQDRVTFTADTSANTAYMELRSLRSADTAVYYCARVGPYSWDDSPQDNYYMDVWGKGTTVIVSS
VL: EIVLTQSPGTLSLSPGERATFSCRSSHSIRSRRVAWYQHKPGQAPRLVIHGVSNRASGISDRFSGSGSGTDFTLTITRVEPEDFALYYCQVYGASSYTFGQGTKLERKR
modifications: heavy-chain glycan trimmed to core GlcNAc, 6-N3-GalNAc attached and reacted with BCN-HS-PEG2-HS-(va-PAB-Ex)2 3 (exatecan payload); average DAR 3.75
B4: tusamitamab-DM4 (antibody, human IgG1, kappa, V domains shown)
VH: EVQLQESGPGLVKPGGSLSLSCAASGFVFSSYDMSWVRQTPERGLEWVAYISSGGGITYAPSTVKGRFTVSRDNAKNTLYLQMNSLTSEDTAVYYCAAHYFGSSGPFAYWGQGTLVTVSS
VL: DIQMTQSPASLSASVDRVTITCRASENIFSYLAWYQQKPGKSPKLLVYNTRTLAEGVPSRFSGSGSGTDFSLTISSLQPEDFATYYCQHHYGTPFTFGSGTKLEIKR
modifications: SPDB-DM4 conjugated, sites not stated; average DAR 3.4
B5: tusamitamab (antibody, human IgG1, kappa, V domains shown)
VH: EVQLQESGPGLVKPGGSLSLSCAASGFVFSSYDMSWVRQTPERGLEWVAYISSGGGITYAPSTVKGRFTVSRDNAKNTLYLQMNSLTSEDTAVYYCAAHYFGSSGPFAYWGQGTLVTVSS
VL: DIQMTQSPASLSASVDRVTITCRASENIFSYLAWYQQKPGKSPKLLVYNTRTLAEGVPSRFSGSGSGTDFSLTISSLQPEDFATYYCQHHYGTPFTFGSGTKLEIKR
notes: IgG transiently expressed in CHO K1 cells; also called tusamitamab (I); huMAb2-3
B6: tusamitamab-3 (antibody, human IgG1, kappa, V domains shown)
VH: EVQLQESGPGLVKPGGSLSLSCAASGFVFSSYDMSWVRQTPERGLEWVAYISSGGGITYAPSTVKGRFTVSRDNAKNTLYLQMNSLTSEDTAVYYCAAHYFGSSGPFAYWGQGTLVTVSS
VL: DIQMTQSPASLSASVDRVTITCRASENIFSYLAWYQQKPGKSPKLLVYNTRTLAEGVPSRFSGSGSGTDFSLTISSLQPEDFATYYCQHHYGTPFTFGSGTKLEIKR
modifications: heavy-chain glycan trimmed to core GlcNAc, 6-N3-GalNAc attached and reacted with BCN-HS-PEG2-HS-(va-PAB-Ex)2 3 (exatecan payload); average DAR 3.89
B7: tusamitamab-6 (antibody, human IgG1, kappa, V domains shown)
VH: EVQLQESGPGLVKPGGSLSLSCAASGFVFSSYDMSWVRQTPERGLEWVAYISSGGGITYAPSTVKGRFTVSRDNAKNTLYLQMNSLTSEDTAVYYCAAHYFGSSGPFAYWGQGTLVTVSS
VL: DIQMTQSPASLSASVDRVTITCRASENIFSYLAWYQQKPGKSPKLLVYNTRTLAEGVPSRFSGSGSGTDFSLTISSLQPEDFATYYCQHHYGTPFTFGSGTKLEIKR
modifications: heavy-chain glycan trimmed to core GlcNAc, 6-N3-GalNAc attached and reacted with BCN-HS-PEG2-HS-(vc-PABA-Ahx-May)2 6 (maytansinoid payload); average DAR 3.85

Columns and labels:
CEACAM5 on MKN-45 cells = target: T1, CEACAM5 on MKN-45 cells; assay: cell-based or functional assay
[1] = target: T2, Human CEACAM5 (CD66e protein, His Tag, …); assay: ELISA, His-tagged antigen on nickel NTA plate, anti-human IgG-HRP detection
Procedure: (§1) Nickel NTA plates (Pierce™ Nickel coated plated, ThermoScientific™) were washed three times prior to use. Human CEACAM5 (CD66e protein, His Tag, Sino Biological), human CEACAM6 (CD66c protein, His Tag, Sino Biological) and cynomolgus CEACAM5 (CD66e protein, His Tag, Sino Biological) were dissolved at a concentration of 0.05 μg/mL in 0.1% BSA in PBS (PBA). 100 μL was added to each well and incubated while shaking for 1 hour at room temperature. After removal, the plate was washed 3× with 0.05% Tween-20 in PBS (washing buffer). ADCs were diluted in 0.1% PBA to a final concentration of 8 μg/mL and 100 μL was added to each well (in triplo). ADCs were incubated for 1 h at room temperature. Prior to the addition of 100 μL 1:100 dilution of secondary antibody (Goat anti-human IgG, HRP conjugate, Invitrogen) the plate was washed 3× with washing buffer. The plate was incubated again for 1 h at room temperature and subsequently washed 3× with washing buffer and 3× with PBS. Finally, 100 μL TMB ELISA substrate (1 Step™ Turbo TMB ELISA substrate, ThermoScientific™) was added and incubated for 1 minute. The absorbance of the colorimetric signal was measured with Infinite® M1000 (Tecan) at 605 nm. Data was plotted corrected for the background (see FIGS. 9).

[2] = target: T3, human CEACAM6 (CD66c protein, His Tag, …); assay: as above
Procedure: as §1

Binder	MKN-45, IC50 (CEACAM5 on MKN-45 cells) [nM]	binding result [1]	binding result [2]
B1	6.5	–	–
B2	–	binds	no binding (tested: 8 µg/mL)
B3	> 100	–	–
B4	2.6	–	–
B5	–	–	no binding (tested: 8 µg/mL)
B6	3.4	–	–
B7	0.88	–	–
